Experimental data from PMC9352680, “A comprehensive thermodynamic model for RNA binding by the Saccharomyces cerevisiae Pumilio protein PUF4”.

B1: Id_ii_S2_P4E.2_K4.1_C4.2_H4.1_A4.1_F4.1_T4.2_[G10A]_[T11C] (ssRNA)
RNA: UUUGAUUAAUAUGAUAUCGUUCUUUCUCUUGUAUAUUAACUUCUUUCUCGAUAUCAUAUUAAUCUUU
B2: Id_ii_S2_P4E.2_K4.1_C4.2_H4.1_A4.1_F4.1_T4.2_[G10A]_[T11A] (ssRNA)
RNA: UUUGAUUAAUAUGAUAUCGUUCUUUCUCUUGUAUAUUAAAUUCUUUCUCGAUAUCAUAUUAAUCUUU
B3: Id_ii_S2_P4E.2_K4.1_C4.2_H4.1_A4.1_F4.1_T4.2_[G10A] (ssRNA)
RNA: UUUGAUUAAUAUGAUAUCGUUCUUUCUCUUGUAUAUUAAUUUCUUUCUCGAUAUCAUAUUAAUCUUU
B4: Id_ii_S2_P4E.2_K4.1_C4.2_H4.1_A4.1_F4.1_T4.2_[T11C] (ssRNA)
RNA: UUUGAUUAAUAUGAUAUCGUUCUUUCUCUUGUAUAUUAGCUUCUUUCUCGAUAUCAUAUUAAUCUUU
B5: Id_ii_S2_P4E.3_K4.2_C4.2_[C-2G]_[T-1G]_H4.2_A4.1_F4.1_T4.2_[G10A] (ssRNA)
RNA: UUUGAUUAAUAUGAUAUCGUUCUUUCUGGUAUAUAUUAAUUUCUUUCUCGAUAUCAUAUUAAUCUUU
B6: Id_ii_S2_P4E.3_K4.2_C4.2_[C-2G]_[T-1C]_H4.2_A4.1_F4.1_T4.2_[G10C]_[T11G] (ssRNA)
RNA: UUUGAUUAAUAUGAUAUCGUUCUUUCUGCUAUAUAUUACGUUCUUUCUCGAUAUCAUAUUAAUCUUU
B7: Id_ii_S2_P4E.3_K4.2_C4.2_[C-2G]_[T-1C]_H4.2_A4.1_F4.1_T4.2_[G10C]_[T11C] (ssRNA)
RNA: UUUGAUUAAUAUGAUAUCGUUCUUUCUGCUAUAUAUUACCUUCUUUCUCGAUAUCAUAUUAAUCUUU
B8: Id_ii_S2_P4E.3_K4.2_C4.2_[C-2G]_[T-1C]_H4.2_A4.1_F4.1_T4.2_[G10C]_[T11A] (ssRNA)
RNA: UUUGAUUAAUAUGAUAUCGUUCUUUCUGCUAUAUAUUACAUUCUUUCUCGAUAUCAUAUUAAUCUUU
B9: Id_ii_S2_P4E.3_K4.2_C4.2_[C-2G]_[T-1C]_H4.2_A4.1_F4.1_T4.2_[G10T]_[T11G] (ssRNA)
RNA: UUUGAUUAAUAUGAUAUCGUUCUUUCUGCUAUAUAUUAUGUUCUUUCUCGAUAUCAUAUUAAUCUUU
B10: Id_ii_S2_P4E.3_K4.2_C4.2_[C-2G]_[T-1C]_H4.2_A4.1_F4.1_T4.2_[G10T]_[T11C] (ssRNA)
RNA: UUUGAUUAAUAUGAUAUCGUUCUUUCUGCUAUAUAUUAUCUUCUUUCUCGAUAUCAUAUUAAUCUUU
B11: Id_ii_S2_P4E.3_K4.2_C4.2_[C-2G]_[T-1C]_H4.2_A4.1_F4.1_T4.2_[G10A]_[T11C] (ssRNA)
RNA: UUUGAUUAAUAUGAUAUCGUUCUUUCUGCUAUAUAUUAACUUCUUUCUCGAUAUCAUAUUAAUCUUU
B12: Id_ii_S2_P4E.3_K4.2_C4.2_[C-2G]_[T-1C]_H4.2_A4.1_F4.1_T4.2_[G10A] (ssRNA)
RNA: UUUGAUUAAUAUGAUAUCGUUCUUUCUGCUAUAUAUUAAUUUCUUUCUCGAUAUCAUAUUAAUCUUU
B13: Id_ii_S2_P4E.3_K4.2_C4.2_[C-2G]_H4.2_A4.1_F4.1_T4.2_[G10C] (ssRNA)
RNA: UUUGAUUAAUAUGAUAUCGUUCUUUCUGUUAUAUAUUACUUUCUUUCUCGAUAUCAUAUUAAUCUUU
B14: Id_ii_S2_P4E.3_K4.2_C4.2_[C-2G]_H4.2_A4.1_F4.1_T4.2_[G10T]_[T11G] (ssRNA)
RNA: UUUGAUUAAUAUGAUAUCGUUCUUUCUGUUAUAUAUUAUGUUCUUUCUCGAUAUCAUAUUAAUCUUU
B15: Id_ii_S2_P4E.3_K4.2_C4.2_[C-2G]_H4.2_A4.1_F4.1_T4.2_[G10T]_[T11A] (ssRNA)
RNA: UUUGAUUAAUAUGAUAUCGUUCUUUCUGUUAUAUAUUAUAUUCUUUCUCGAUAUCAUAUUAAUCUUU
B16: Id_ii_S2_P4E.3_K4.2_C4.2_[C-2G]_H4.2_A4.1_F4.1_T4.2_[G10T] (ssRNA)
RNA: UUUGAUUAAUAUGAUAUCGUUCUUUCUGUUAUAUAUUAUUUUCUUUCUCGAUAUCAUAUUAAUCUUU
B17: Id_ii_S2_P4E.3_K4.2_C4.2_[C-2G]_H4.2_A4.1_F4.1_T4.2_[G10A]_[T11A] (ssRNA)
RNA: UUUGAUUAAUAUGAUAUCGUUCUUUCUGUUAUAUAUUAAAUUCUUUCUCGAUAUCAUAUUAAUCUUU
B18: Id_ii_S2_P4E.3_K4.2_C4.2_[C-2T]_[T-1G]_H4.2_A4.1_F4.1_T4.2_[G10T]_[T11G] (ssRNA)
RNA: UUUGAUUAAUAUGAUAUCGUUCUUUCUUGUAUAUAUUAUGUUCUUUCUCGAUAUCAUAUUAAUCUUU
B19: Id_ii_S2_P4E.3_K4.2_C4.2_[C-2T]_[T-1G]_H4.2_A4.1_F4.1_T4.2_[G10A]_[T11C] (ssRNA)
RNA: UUUGAUUAAUAUGAUAUCGUUCUUUCUUGUAUAUAUUAACUUCUUUCUCGAUAUCAUAUUAAUCUUU
B20: Id_ii_S2_P4E.3_K4.2_C4.2_[C-2T]_[T-1G]_H4.2_A4.1_F4.1_T4.2_[G10A]_[T11A] (ssRNA)
RNA: UUUGAUUAAUAUGAUAUCGUUCUUUCUUGUAUAUAUUAAAUUCUUUCUCGAUAUCAUAUUAAUCUUU
B21: Id_ii_S2_P4E.3_K4.2_C4.2_[C-2T]_[T-1G]_H4.2_A4.1_F4.1_T4.2 (ssRNA)
RNA: UUUGAUUAAUAUGAUAUCGUUCUUUCUUGUAUAUAUUAGUUUCUUUCUCGAUAUCAUAUUAAUCUUU
B22: Id_ii_S2_P4E.3_K4.2_C4.2_[C-2T]_[T-1C]_H4.2_A4.1_F4.1_T4.2_[G10C]_[T11G] (ssRNA)
RNA: UUUGAUUAAUAUGAUAUCGUUCUUUCUUCUAUAUAUUACGUUCUUUCUCGAUAUCAUAUUAAUCUUU
B23: Id_ii_S2_P4E.3_K4.2_C4.2_[C-2T]_[T-1C]_H4.2_A4.1_F4.1_T4.2_[G10C]_[T11C] (ssRNA)
RNA: UUUGAUUAAUAUGAUAUCGUUCUUUCUUCUAUAUAUUACCUUCUUUCUCGAUAUCAUAUUAAUCUUU
B24: Id_ii_S2_P4E.3_K4.2_C4.2_[C-2T]_[T-1C]_H4.2_A4.1_F4.1_T4.2_[G10C]_[T11A] (ssRNA)
RNA: UUUGAUUAAUAUGAUAUCGUUCUUUCUUCUAUAUAUUACAUUCUUUCUCGAUAUCAUAUUAAUCUUU
B25: Id_ii_S2_P4E.3_K4.2_C4.2_[C-2T]_[T-1C]_H4.2_A4.1_F4.1_T4.2_[G10C] (ssRNA)
RNA: UUUGAUUAAUAUGAUAUCGUUCUUUCUUCUAUAUAUUACUUUCUUUCUCGAUAUCAUAUUAAUCUUU
B26: Id_ii_S2_P4E.3_K4.2_C4.2_[C-2T]_[T-1C]_H4.2_A4.1_F4.1_T4.2_[G10T]_[T11C] (ssRNA)
RNA: UUUGAUUAAUAUGAUAUCGUUCUUUCUUCUAUAUAUUAUCUUCUUUCUCGAUAUCAUAUUAAUCUUU
B27: Id_ii_S2_P4E.3_K4.2_C4.2_[C-2T]_[T-1C]_H4.2_A4.1_F4.1_T4.2_[G10T]_[T11A] (ssRNA)
RNA: UUUGAUUAAUAUGAUAUCGUUCUUUCUUCUAUAUAUUAUAUUCUUUCUCGAUAUCAUAUUAAUCUUU
B28: Id_ii_S2_P4E.3_K4.2_C4.2_[C-2T]_[T-1C]_H4.2_A4.1_F4.1_T4.2_[G10A]_[T11C] (ssRNA)
RNA: UUUGAUUAAUAUGAUAUCGUUCUUUCUUCUAUAUAUUAACUUCUUUCUCGAUAUCAUAUUAAUCUUU
B29: Id_ii_S2_P4E.3_K4.2_C4.2_[C-2T]_[T-1C]_H4.2_A4.1_F4.1_T4.2_[G10A]_[T11A] (ssRNA)
RNA: UUUGAUUAAUAUGAUAUCGUUCUUUCUUCUAUAUAUUAAAUUCUUUCUCGAUAUCAUAUUAAUCUUU
B30: Id_ii_S2_P4E.3_K4.2_C4.2_[C-2T]_[T-1C]_H4.2_A4.1_F4.1_T4.2_[G10A] (ssRNA)
RNA: UUUGAUUAAUAUGAUAUCGUUCUUUCUUCUAUAUAUUAAUUUCUUUCUCGAUAUCAUAUUAAUCUUU
B31: Id_ii_S2_P4E.3_K4.2_C4.2_[C-2T]_[T-1A]_H4.2_A4.1_F4.1_T4.2_[G10C]_[T11C] (ssRNA)
RNA: UUUGAUUAAUAUGAUAUCGUUCUUUCUUAUAUAUAUUACCUUCUUUCUCGAUAUCAUAUUAAUCUUU

Biological target: T1, PUF4 RNA-binding domain (Saccharomyces cerevisiae, UniProt P25339 537-888)
T1 sequence: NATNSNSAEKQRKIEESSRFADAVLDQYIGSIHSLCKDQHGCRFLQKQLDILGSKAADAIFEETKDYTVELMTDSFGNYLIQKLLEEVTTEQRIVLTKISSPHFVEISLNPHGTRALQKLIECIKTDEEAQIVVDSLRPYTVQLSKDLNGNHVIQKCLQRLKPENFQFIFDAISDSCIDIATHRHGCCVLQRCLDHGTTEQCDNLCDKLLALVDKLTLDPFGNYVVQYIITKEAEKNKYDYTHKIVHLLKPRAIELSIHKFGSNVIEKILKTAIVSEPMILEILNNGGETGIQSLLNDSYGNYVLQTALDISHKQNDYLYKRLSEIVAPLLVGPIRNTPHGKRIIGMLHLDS
Experiment: Mg; RNA-MaP; 20 mM Na-HEPES pH 7.4, 30 mM KOAc, 0.75 mM MgCl2, 0.1% Tween-20, 5% glycerol, 0.1 mg/mL BSA, 2 mM DTT; 25 C; 0.0125-409.6 nM protein
Settings: tags: N-His6-TEV cleaved; C-SNAP kept, Cy3B-labelled; label: tethered on chip by stalled RNA polymerase

Row | Binder | Kd
1 | B1 | 0.566 nM
2 | B2 | 0.537 nM
3 | B3 | 0.317 nM
4 | B4 | 0.275 nM
5 | B5 | 57 nM
6 | B6 | 37.1 nM
7 | B7 | 23.6 nM
8 | B8 | 56.6 nM
9 | B9 | 29.1 nM
10 | UCUCUUUAUAUUAUUAUCUCUU (ssRNA) [Ia_S1_P5E.1_K5.1_C5.1_H5.1_[G2A]_A5.1_F5.1_T5.1] | 367 nM
11 | UCUCUUUAUAUUAUUCUCUCUU (ssRNA) [Ib_S1_P5E.1_K5.1_C5.1_H5.1_[G2A]_A5.1_F5.1_[A10C]_T5.1] | 462 nM
12 | B10 | 22.4 nM
13 | B11 | 57.7 nM
14 | B12 | 16.7 nM
15 | B13 | 26.9 nM
16 | B14 | 11.2 nM
17 | B15 | 53.5 nM
18 | B16 | 7.68 nM

Row | Binder | Kd
19 | B17 | 13.7 nM
20 | B18 | 2.66 nM
21 | B19 | 4.44 nM
22 | UCUCUUUUUAUUAUUUUCUCUU (ssRNA) [Ib_S1_P5E.1_K5.1_C5.1_H5.1_[G2T]_A5.1_F5.1_[A10T]_T5.1] | > 2300 nM
23 | B20 | 2.31 nM
24 | B21 | 1.86 nM
25 | B22 | 8.91 nM
26 | B23 | 8.5 nM
27 | B24 | 11.5 nM
28 | B25 | 6.91 nM
29 | B26 | 7 nM
30 | B27 | 13.5 nM
31 | B28 | 8.95 nM
32 | B29 | 18.5 nM
33 | UCUCUUUAUAUUAUUUUCUCUU (ssRNA) [Ib_S1_P5E.1_K5.1_C5.1_H5.1_[G2A]_A5.1_F5.1_[A10T]_T5.1] | 473 nM
34 | B30 | 8.89 nM
35 | B31 | 14.9 nM
